Reference: the supplement of paper PMC7877785
± gives the uncertainty stated by the source.

Test: self-splicing fitness, log relative to wild type (ln ratio); higher = more splicing; Tetrahymena group I intron in knt gene, E. coli kanamycin selection, DiMSum; sequences stand for … in CUCUCU…GGAGGGAAAAGUUAUCAGGCAUGCACCUGGUAGCUAGUCUUUAAACCAAUAGAUUGCAUCGGUUUAAAAGGCAAGACCGUCAAAUUGCGGGAAAGGGGUCAACAGCCGUUCAGUACCAAGUCUCAGGGGAAACUUUGAGAUGGCCUUGCAAAGGGUAUGGUAAUAAGCUGACGGACAUGGUCCUAACCACGCAGCCAAGUCCUAAGUCAACAGAUCUUCUGUUGAUAUGGAUGCAGUUCACAGACUAAAUGUCGGUCGGGGAAGAUGUAUUCUUCUCAUAAGAUAUAGUCGGACCUCUCCUUAAUGGGAGCUAGCGGAUGAAGUGAUGCAACACUGGAGCCGCUGGGAACUAAUUUGUAUGCGAAAGUAUAUUGAUUAGUUUUGGAGUACUCGUGGUCG
Procedure, shortened: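 Fitness was computed with DiMSum as the error-weighted combination of replicate fold changes, kanamycin versus none, each normalised to wild type. The library randomised all eight intron nucleotides of the P1ex region, with the intron placed in the knt kanamycin-resistance gene on pET-22b(+) in E. coli BL21(DE3). Six replicate transformations were grown overnight at 37°C or 30°C on LB agar with or without 25 μg/mL kanamycin, plus 100 μg/mL carbenicillin, 50 μM IPTG and 0.2% rhamnose. Pooled colonies were amplicon-sequenced on an Illumina HiSeq 2500.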

Row | Sequence | self-splicing fitness (ln) (30 °C) | self-splicing fitness (ln) (37 °C)
1 | AUACAGCAAUAUUACGAUUU | -0.0463 ± 0.053 | 0.498 ± 0.073
2 | AUACAGCAAUAUUACGCACA | -0.789 ± 0.11 | 0.62 ± 0.12
3 | AUACAGCAAUAUUACGCAUG | -1.44 ± 0.094 | -0.421 ± 0.12
4 | AUACAGCAAUAUUACGCCCU | -0.0578 ± 0.06 | -0.247 ± 0.072
5 | AUACAGCAAUAUUACGCCGA | -1.98 ± 0.18 | -1.51 ± 0.19
6 | AUACAGCAAUAUUACGCCGU | -1.34 ± 0.099 | -0.0561 ± 0.1
7 | AUACAGCAAUAUUACGCUAG | -1.61 ± 0.079 | -1.23 ± 0.096
8 | AUACAGCAAUAUUACGCUCC | -1.47 ± 0.16 | -0.769 ± 0.21
9 | AUACAGCAAUAUUACGGGCA | -0.996 ± 0.099 | -0.765 ± 0.1
10 | AUACAGCAAUAUUACGGUGA | -0.847 ± 0.063 | 0.283 ± 0.077
11 | AUACAGCAAUAUUACGGUUU | -0.703 ± 0.048 | 0.226 ± 0.059
12 | AUACAGCAAUAUUACGUAAU | -1.43 ± 0.085 | -0.584 ± 0.12
13 | AUACAGCAAUAUUACGUAUC | -4.19 ± 0.21 | -2.6 ± 0.17
14 | AUACAGCAAUAUUACGUGAA | -2.19 ± 0.077 | -1.08 ± 0.076
15 | AUACAGCAAUAUUACGUGCG | -0.886 ± 0.081 | -0.3 ± 0.091
16 | AUACAGCAAUAUUACGUGGC | -3.22 ± 0.12 | -2.39 ± 0.15
17 | AUAGAGCAAUAUUACGAACG | -2.4 ± 0.21 | -0.83 ± 0.19
18 | AUAGAGCAAUAUUACGAACU | -0.774 ± 0.13 | 0.227 ± 0.18
19 | AUAGAGCAAUAUUACGAAUA | -4.03 ± 0.47 | -2.1 ± 0.29
20 | AUAGAGCAAUAUUACGACGA | -0.935 ± 0.093 | -0.479 ± 0.13
21 | AUAGAGCAAUAUUACGACUG | -2.11 ± 0.13 | -0.786 ± 0.18
22 | AUAGAGCAAUAUUACGCAAG | -2.97 ± 0.2 | -1.24 ± 0.22
23 | AUAGAGCAAUAUUACGCUUC | -2.52 ± 0.24 | -1.47 ± 0.25
24 | AUAGAGCAAUAUUACGGGGU | -3.46 ± 0.21 | -3.53 ± 0.23

Row | Sequence | self-splicing fitness (ln) (30 °C) | self-splicing fitness (ln) (37 °C)
25 | AUAGAGCAAUAUUACGGUCC | -2.61 ± 0.38 | –
26 | AUAGAGCAAUAUUACGGUGG | -1.24 ± 0.26 | –
27 | AUAGAGCAAUAUUACGUAAG | -1.94 ± 0.22 | -1.34 ± 0.25
28 | AUAGAGCAAUAUUACGUAUA | -2.1 ± 0.19 | -0.371 ± 0.21
29 | AUAGAGCAAUAUUACGUCGA | -2.82 ± 0.19 | -1.04 ± 0.17
30 | AUAGAGCAAUAUUACGUCUC | -0.924 ± 0.15 | -0.745 ± 0.16
31 | AUAGAGCAAUAUUACGUUAU | -0.975 ± 0.089 | -0.177 ± 0.11
32 | AUAGAGCAAUAUUACGUUGC | -2.95 ± 0.2 | -2.05 ± 0.26
33 | AUAUAGCAAUAUUACGAAAC | -2.85 ± 0.29 | -2.03 ± 0.34
34 | AUAUAGCAAUAUUACGACUA | -0.8 ± 0.3 | -0.351 ± 0.29
35 | AUAUAGCAAUAUUACGAGCU | -2.13 ± 0.1 | -1.11 ± 0.1
36 | AUAUAGCAAUAUUACGAGGA | – | -2.44 ± 0.38
37 | AUAUAGCAAUAUUACGAGGU | -3.66 ± 0.26 | -1.44 ± 0.15
38 | AUAUAGCAAUAUUACGCAAU | -1.49 ± 0.17 | -0.77 ± 0.22
39 | AUAUAGCAAUAUUACGCAGG | -3.74 ± 0.31 | -1.69 ± 0.23
40 | AUAUAGCAAUAUUACGCCGC | -2.58 ± 0.49 | –
41 | AUAUAGCAAUAUUACGCCGG | -3.65 ± 0.37 | -0.796 ± 0.3
42 | AUAUAGCAAUAUUACGCCUA | -0.306 ± 0.17 | -0.0941 ± 0.12
43 | AUAUAGCAAUAUUACGCCUG | -2.24 ± 0.23 | -1.6 ± 0.24
44 | AUAUAGCAAUAUUACGCGCA | -0.342 ± 0.15 | -0.724 ± 0.14
45 | AUAUAGCAAUAUUACGGAUG | -3.03 ± 0.25 | -2.15 ± 0.28
46 | AUAUAGCAAUAUUACGGCAA | -0.751 ± 0.18 | -0.989 ± 0.19
47 | AUAUAGCAAUAUUACGGCUG | -0.816 ± 0.14 | 0.663 ± 0.19
48 | AUAUAGCAAUAUUACGGGCC | -2.81 ± 0.3 | -2.86 ± 0.43

Row | Sequence | self-splicing fitness (ln) (30 °C) | self-splicing fitness (ln) (37 °C)
49 | AUAUAGCAAUAUUACGGGUU | -3.43 ± 0.14 | -2.51 ± 0.14
50 | AUAUAGCAAUAUUACGGUAU | -3.75 ± 0.32 | -1.45 ± 0.2
51 | AUAUAGCAAUAUUACGGUGU | -2.03 ± 0.16 | -1.38 ± 0.17
52 | AUAUAGCAAUAUUACGUCAU | -2.43 ± 0.14 | -1.15 ± 0.14
53 | AUAUAGCAAUAUUACGUUUG | -2.71 ± 0.23 | -2.21 ± 0.26
54 | AUCAAGCAAUAUUACGAAAA | -2.84 ± 0.36 | -2.03 ± 0.27
55 | AUCAAGCAAUAUUACGAAUA | -2.36 ± 0.21 | -1.44 ± 0.17
56 | AUCAAGCAAUAUUACGACAU | 0.105 ± 0.011 | 0.377 ± 0.032
57 | AUCAAGCAAUAUUACGACCC | -1.34 ± 0.17 | -0.0224 ± 0.3
58 | AUCAAGCAAUAUUACGACUG | -1.59 ± 0.11 | -1.27 ± 0.13
59 | AUCAAGCAAUAUUACGAGAC | -3.01 ± 0.3 | -1.87 ± 0.19
60 | AUCAAGCAAUAUUACGAUCU | -1.37 ± 0.1 | -0.575 ± 0.12
61 | AUCAAGCAAUAUUACGAUUA | -1.28 ± 0.11 | -0.622 ± 0.13
62 | AUCAAGCAAUAUUACGCAAC | -2.61 ± 0.14 | -2.37 ± 0.22
63 | AUCAAGCAAUAUUACGCGUC | -3.45 ± 0.23 | -1.41 ± 0.16
64 | AUCAAGCAAUAUUACGCUCC | -0.122 ± 0.16 | -1.04 ± 0.17
65 | AUCAAGCAAUAUUACGCUUC | – | -2.01 ± 0.46
66 | AUCAAGCAAUAUUACGGAUU | -3.31 ± 0.17 | -1.2 ± 0.14
67 | AUCAAGCAAUAUUACGGCAA | -0.819 ± 0.088 | -0.213 ± 0.097
68 | AUCAAGCAAUAUUACGGCAC | -1.67 ± 0.1 | -0.0454 ± 0.16
69 | AUCAAGCAAUAUUACGGGAC | -2.23 ± 0.081 | -1.11 ± 0.1
70 | AUCAAGCAAUAUUACGUACA | -1.21 ± 0.1 | -0.544 ± 0.12
71 | AUCAAGCAAUAUUACGUACC | -0.82 ± 0.12 | -0.953 ± 0.17
72 | AUCAAGCAAUAUUACGUACU | -0.173 ± 0.057 | 0.183 ± 0.066

Row | Sequence | self-splicing fitness (ln) (30 °C) | self-splicing fitness (ln) (37 °C)
73 | AUCAAGCAAUAUUACGUAGC | -4.82 ± 0.45 | -2.1 ± 0.31
74 | AUCAAGCAAUAUUACGUCCU | -0.37 ± 0.088 | 0.533 ± 0.12
75 | AUCAAGCAAUAUUACGUGUA | -2.39 ± 0.14 | -1.42 ± 0.12
76 | AUCAAGCAAUAUUACGUGUC | -3.9 ± 0.15 | -2.6 ± 0.16
77 | AUCAAGCAAUAUUACGUUGC | -3.84 ± 0.18 | -2 ± 0.15
78 | AUCCAGCAAUAUUACGAAUC | -2.04 ± 0.15 | -1.87 ± 0.22
79 | AUCCAGCAAUAUUACGACUU | 0.167 ± 0.074 | 0.32 ± 0.086
80 | AUCCAGCAAUAUUACGAGAU | -3.77 ± 0.2 | -2.22 ± 0.19
81 | AUCCAGCAAUAUUACGAGGU | -3.37 ± 0.23 | -2.65 ± 0.22
82 | AUCCAGCAAUAUUACGAUAC | -2.91 ± 0.23 | -0.914 ± 0.15
83 | AUCCAGCAAUAUUACGAUAG | -2.71 ± 0.25 | -2.84 ± 0.31
84 | AUCCAGCAAUAUUACGAUCC | -1.43 ± 0.21 | -0.865 ± 0.21
85 | AUCCAGCAAUAUUACGCCCU | -0.182 ± 0.15 | -0.00746 ± 0.21
86 | AUCCAGCAAUAUUACGCGGC | -2.86 ± 0.18 | -4.06 ± 0.24
87 | AUCCAGCAAUAUUACGCGUG | -2.3 ± 0.11 | -1.72 ± 0.11
88 | AUCCAGCAAUAUUACGGAAG | -1.1 ± 0.11 | -0.947 ± 0.14
89 | AUCCAGCAAUAUUACGGCCU | -0.115 ± 0.065 | 0.0854 ± 0.081
90 | AUCCAGCAAUAUUACGGGGA | -1.4 ± 0.11 | -1.71 ± 0.14
91 | AUCCAGCAAUAUUACGUACC | -2 ± 0.17 | -0.552 ± 0.32
92 | AUCCAGCAAUAUUACGUACG | -1.7 ± 0.11 | -0.813 ± 0.19
93 | AUCCAGCAAUAUUACGUCAU | -0.725 ± 0.041 | -0.313 ± 0.057
94 | AUCCAGCAAUAUUACGUCGC | -3.25 ± 0.24 | -2.08 ± 0.19
95 | AUCCAGCAAUAUUACGUGAG | -0.052 ± 0.045 | 0.237 ± 0.073
96 | AUCCAGCAAUAUUACGUGGU | -3.14 ± 0.12 | -2.9 ± 0.15
